T1: peptide 6 (TIRC7 derived peptide)
T1 construct: also called Peptid6; Vol 6
T1 peptide: DLPDASVNGWSSDE

B1: chimeric Neliximab (antibody, V domains shown)
VH: EVQLQQSGPELVKPGASVKMSCKASGYTFTTYVMHWVKQKPGQGLEWIGYINPYNDGTNYNEKFKGKATLTSDKSSSTAYMELSTLTSEDSAVYYCAEFITKTVGGSNWYLDVWGAGTTVTVSS
VL: QIVLTQSPAIMSASPGEKVTMTCSASSSISYIHWFQQKPGTSPKRWIYDTSKLPSGVPARFSGSGSGTSYSLTISSMEAEDAATYYCHQRSSYTWTFGGGTKLEIKR
notes: Murine VH and VL joined to human gamma 1 (pConGamma1f vector) and human kappa (pConKappa vector) constant regions, made in NSO or CHO cells; also called chimeric antibody of clone 17-1; chimerized #17
B2: murine Neliximab (antibody, V domains shown)
VH: EVQLQQSGPELVKPGASVKMSCKASGYTFTTYVMHWVKQKPGQGLEWIGYINPYNDGTNYNEKFKGKATLTSDKSSSTAYMELSTLTSEDSAVYYCAEFITKTVGGSNWYLDVWGAGTTVTVSS
VL: QIVLTQSPAIMSASPGEKVTMTCSASSSISYIHWFQQKPGTSPKRWIYDTSKLPSGVPARFSGSGSGTSYSLTISSMEAEDAATYYCHQRSSYTWTFGGGTKLEIKR
notes: also called #17; Clone 17
B3: murine Metiliximab (antibody, V domains shown)
VH: EVQLQQSGPELVKPGASVKMSCKASGYTFTSYVIHWVKQKPGQGLEWIGYINPYNYDTKYNEKFKGEATLTSDKSSNTAYMELSSLTSEDSAVYYCAGFFTRAVGGSYWYLDVWGAGTTVTVSS
VL: QIVLTQSPAIMSASPGEKVTMTCSASSSISYIHWFQQKPGTSPKRWIYDTSKLVSGVPARFSGSGSGTSYSLTISNMEAADAATYYCHQRSASTWTFGGGTKLEIKR
notes: also called #9; Clone 9

Biological target: T1, peptide 6 (TIRC7 derived peptide)
Assay: solution equilibrium titration with peptide, free antibody by ELISA (method of Friquet et al 1985), Klotz plot

Row | Binder | Kd [nM]
1 | B1 | 1
2 | B2 | 1
3 | B3 | 0.5
